Patent publication US9334316B2, “Formulations comprising glucagon” (Oregon Health & Science University, priority 2014, dated 2016)
Where two headings read alike, the source gives them in different places.

What was measured:
[1] = 1st order degradation kinetics of ferulic acid / tetrahydrocurcumin in glucagon formulations; format: physicochemical; conditions: for half-life at 1 mM: buffer, read-out: degradation t1/2 (converted)
[2] = Curcumin half-life in glycine buffer at pH 9.0; format: physicochemical
Excerpt: Curcumin reduces Aβ fibril formation in vitro and when administered systemically to transgenic rodents predisposed to Alzheimer's disease (Hamaguchi T et al, Am J Pathol 175, 2557-2565 (2009) incorporated by reference herein). Curcumin has also been reported to inhibit the polymerization of α-synuclein, the compound responsible for Lewy body formation in diseases such as Parkinson's disease (Ono K and Yamada M, Curr Pharm Des 14, 3247-3266 (2008) and Ono K et al Curr Pharm Des 14, 3247-3266 (2008); both of which are incorporated by reference herein). This finding was confirmed in Pandey N et al, Acta Neuropathol 115, 479-489 (2008); which is incorporated by reference herein. However, curcumin stored in a glycine buffer at pH 9.0 degrades quickly with a half-life of about 7 hours.

[3] = Reversed phase LCMS of glucagon modifications after aging; format: physicochemical
Method: FIG. 3 is a set of four chromatograms from reversed phase LCMS showing the modifications present in glucagon incubated with ferulic acid under the indicated conditions and the recovery by adding varying amounts of L-methionine. The peak indicated as ‘A’ is identified as Met27 oxidation of glucagon; the peak indicated as ‘B’ is a minor breakdown product; the peaks indicated as ‘C’ are identified as glycine adducts.
FIG. 4 is a set of four spectra from reversed phase LCMS showing the modifications present in glucagon incubated under the indicated conditions. The peak indicated as ‘A’ is identified as Met27 oxidation of glucagon; the peak indicated as ‘B’ is a minor breakdown product; the peaks indicated as ‘C’ are identified as glycine adducts.
This oxidation occurs on amino acid residue 27, which is a methionine residue (Met27). In order to minimize oxidation, L-methionine was added to the formulation as an antioxidant at 0.1 and 1 mg/ml. […] This is presumably due to activation of a reactive site on the glucagon backbone that results in an addition reaction with glycine from the bulk solvent. In order to maximize the antioxidant properties while also minimizing the glycine adduct formation, a concentration of 0.1 mg/ml L-methionine was tested. Results are shown in the third panel from the top of FIG. 3. This particular formulation had some minor chain cleavage (peak B) that is variable from batch to batch. As a result, the formulation referred to herein as FAFG includes 0.1 mg/ml L-methionine.
This peak is inhibited at 0.1 mg/ml L-methionine added and nearly absent at 1 mg/ml L-methionine to minimize the oxidation even though glycine adducts are still in high amounts. As a result, the formulation referred to herein as THCFG includes 1 mg/ml L-methionine.
Ferulic acid and tetrahydrocurcumin modify glucagon less than curcumin.

[4] = cited from earlier work
[5] = tested on: cultured mammalian cells; conditions: fibrillated glucagon; cited from earlier work
[6] = 37° C., alkaline (around pH 10) compared to acidic (about pH 3); cited from earlier work

COc1cc(CCC(=O)CC(=O)CCc2ccc(O)c(OC)c2)ccc1O [tetrahydrocurcumin]
1st order degradation k ([1]; 1 mM compound in 80 mM glycine pH 9.0): 0.00886 s⁻¹
1st order degradation k ([1]; 1 mM compound in 80 mM glycine pH 9.0 + 1 mg/ml glucagon): 0.000743 s⁻¹
1st order degradation k ([1]; 1 mM compound in 80 mM glycine pH 9.0 + 1 mg/ml glucagon + 1 mg/ml HSA): -0.0025 s⁻¹
half-life at 1 mM ([1]; pH 9, 1 mM compound in 80 mM glycine pH 9.0 + 1 mg/ml glucagon): 933 h
half-life at 1 mM ([1]; pH 9, 1 mM compound in 80 mM glycine pH 9.0): ~78 h

COc1cc(/C=C/C(=O)CC(=O)/C=C/c2ccc(O)c(OC)c2)ccc1O [curcumin]
half-life ([2]; glucagon buffer with further addition of human serum albumin): 33.5 h
half-life ([2]; in a glucagon buffer): 12.5 h
half-life ([2]; stored in glycine buffer at pH 9.0): ~7 h

COc1cc(/C=C/C(=O)O)ccc1O [ferulic acid]
1st order degradation k ([1]; 1 mM, pH 9): -0.000701 s⁻¹

glucagon
Met27 oxidation of glucagon (peak A, LCMS) ([3]; aged 7 days at 37° C. with 1 mM ferulic acid): minor oxidation occurs
Met27 oxidation of glucagon (peak A, LCMS) ([3]; aged with 1 mM ferulic acid + 1 mg/ml L-methionine): minimization of oxidation
retention of unmodified glucagon ([3]; curcumin formulation + 1 mg/ml L-methionine): higher retention of unmodified glucagon
oxidation of glucagon ([3]; incubated with curcumin for 7 days at 37° C.): complete oxidation
Met27 oxidation of glucagon (peak A, LCMS) ([3]; incubated with tetrahydrocurcumin): much higher amount of Met27 oxidation
Met27 oxidation of glucagon (peak A, LCMS) ([3]; tetrahydrocurcumin + 0.1 mg/ml L-methionine): inhibited
Met27 oxidation of glucagon (peak A, LCMS) ([3]; tetrahydrocurcumin + 1 mg/ml L-methionine): nearly absent
cytotoxicity ([4]; aged at pH 10 in glycine): no cytotoxicity
cytotoxicity ([4]; aged for 5 days at pH 8.5, concentration 2.5 mg/ml): some cytotoxicity
cytotoxicity [5]: cytotoxic
amyloid fibril formation [6]: much less amyloid fibril formation
